According to patent publication US20220088131A1, “COMPOSITIONS AND METHODS RELATING TO C5L2” (King's College London, priority 2013, published 2022):

System: natural regulatory T cells (nTregs)
Experiment: nTreg suppression assay (CFSE dilution)
Assay type: cell-based, human
Settings: nTregs pre-incubated with 7 μM dRA for 8 hr; 1:1 co-culture; FIG. 14
Method: FIG. 14. C5L2 blockage decreases suppressive activity of natural regulatory T cells (nTregs). nTregs and effector T cells from a freshly drawn human blood sample were separated by cell sorting (CD4^+CD25^hiCD127^lo Treg cells; CD4^+CD25^loCD127^hi effector T cells). nTreg cells were incubated in media containing 7 μM of the C5ar/C5L2 double antagonist (dRA) for 8 hr. Cells were then washed twice to remove the dRA and used for a suppression assay via CSFE dilution measurement in 1:1 co-culture and percentage of suppression calculated. Shown are the mean values of two separately performed experiments.
nTregs were isolated essentially as described in Yates, J., et al., Int Immunol. (2007) 19(6):785-99. […]
Principle • Label target cells (T effectors (Teff) usually) with 1 μM CFSE as described • Activate cells with and without Tregs in serial dilution (constant Teff numbers) • CFSE will be evenly split among daughter cells, so peaks on flow will correspond to each round of division (halving of CFSE) • The percentage of dividing precursors can be calculated this way. • In the presence of Tregs, the suppression of division can be estimated. […]
• 1. […] Acquire FL1 fluorescence of each well on day 4 and calculate suppression of CFSE dilution by Tregs (different methods exist for this) * If there is inadequate CFSE labelling, pulse with ^3H-Thymidine on day 5 instead, as a readout for suppression. […]

B1: A8delta71-73: Dual C5aR/C5L2 receptor antagonist; C5a variant A8 (C27A, H67F, D69R, M70S, Q71L, G73R, Arg74 deleted) lacking amino acids 71-73 (protein)
chain: TLQKKIEEIAAKYKHSVVKKCCYDGAAVNNDETCEQRAARISLGPRCIKAFTECCVVASQLRANISFKRS
For B1, the “suppressor function of nTregs” value was “markedly reduced”.
